T1: EsCas13d, nuclease-dead (Eubacterium siraeum, UniProt B0MS50, R295A;H300A;R849A;H854A)
T1 sequence: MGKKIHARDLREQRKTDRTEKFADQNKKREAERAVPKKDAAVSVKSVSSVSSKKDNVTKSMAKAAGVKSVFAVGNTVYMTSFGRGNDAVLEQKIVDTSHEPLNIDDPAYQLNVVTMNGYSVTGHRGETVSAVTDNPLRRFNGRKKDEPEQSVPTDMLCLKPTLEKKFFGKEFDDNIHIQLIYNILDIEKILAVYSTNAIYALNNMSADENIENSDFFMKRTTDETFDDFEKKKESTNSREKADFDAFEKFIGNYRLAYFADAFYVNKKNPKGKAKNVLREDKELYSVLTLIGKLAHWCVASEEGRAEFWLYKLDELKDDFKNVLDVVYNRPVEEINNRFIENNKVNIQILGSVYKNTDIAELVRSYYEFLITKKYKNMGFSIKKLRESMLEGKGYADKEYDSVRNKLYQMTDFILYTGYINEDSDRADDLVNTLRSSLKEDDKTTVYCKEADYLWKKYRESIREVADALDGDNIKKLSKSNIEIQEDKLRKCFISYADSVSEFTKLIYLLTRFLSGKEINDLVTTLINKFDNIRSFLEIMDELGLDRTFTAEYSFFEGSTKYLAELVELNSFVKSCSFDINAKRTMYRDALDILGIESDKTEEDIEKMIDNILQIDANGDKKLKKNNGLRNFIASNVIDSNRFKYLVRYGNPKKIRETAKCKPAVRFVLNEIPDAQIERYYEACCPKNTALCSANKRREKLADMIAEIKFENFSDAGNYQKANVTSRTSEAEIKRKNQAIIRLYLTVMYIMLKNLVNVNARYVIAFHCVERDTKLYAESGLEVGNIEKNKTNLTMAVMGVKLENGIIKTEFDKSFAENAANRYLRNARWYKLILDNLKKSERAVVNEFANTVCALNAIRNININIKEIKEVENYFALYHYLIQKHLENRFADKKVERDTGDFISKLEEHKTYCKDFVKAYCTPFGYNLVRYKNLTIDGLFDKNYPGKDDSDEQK

B1: target 3 insC 3' of 22,insU 3' of 3 (mixed)
RNA 1: CACCCGUGCAAAAUUGCAGGGGUCUAAAACGACCUGAAUAUUUCAGAUCAAA
RNA 2: GGGAAUGGAUCCACAUCUACGAAUUCGUUUCUUGAUCUGAAAUAUUCAGGUUCUGCAGAUCGGAAGAGCACACGU
B2: target 3 A12G,U22C (mixed)
RNA 1: CACCCGUGCAAAAUUGCAGGGGUCUAAAACGACCUGAAUAUUUCAGAUCAAA
RNA 2: GGGAAUGGAUCCACAUCUACGAAUUCGUUCUUGAUCUGAGAUAUUCAGGUCUGCAGAUCGGAAGAGCACACGU
B3: target 3 U2G,U21C (mixed)
RNA 1: CACCCGUGCAAAAUUGCAGGGGUCUAAAACGACCUGAAUAUUUCAGAUCAAA
RNA 2: GGGAAUGGAUCCACAUCUACGAAUUCGUUUCUGAUCUGAAAUAUUCAGGGCUGCAGAUCGGAAGAGCACACGU
B4: target 3 insC 3' of 7,insA 3' of 4 (mixed)
RNA 1: CACCCGUGCAAAAUUGCAGGGGUCUAAAACGACCUGAAUAUUUCAGAUCAAA
RNA 2: GGGAAUGGAUCCACAUCUACGAAUUCGUUUUUGAUCUGAAAUAUUCCAGAGUCUGCAGAUCGGAAGAGCACACGU
B5: target 3 G4C,A12C (mixed)
RNA 1: CACCCGUGCAAAAUUGCAGGGGUCUAAAACGACCUGAAUAUUUCAGAUCAAA
RNA 2: GGGAAUGGAUCCACAUCUACGAAUUCGUUUUUGAUCUGACAUAUUCACGUCUGCAGAUCGGAAGAGCACACGU
B6: target 3 insC 3' of 9,insG 3' of 8 (mixed)
RNA 1: CACCCGUGCAAAAUUGCAGGGGUCUAAAACGACCUGAAUAUUUCAGAUCAAA
RNA 2: GGGAAUGGAUCCACAUCUACGAAUUCGUUUUUGAUCUGAAAUACUGUCAGGUCUGCAGAUCGGAAGAGCACACGU
B7: target 3 U2G,A12G (mixed)
RNA 1: CACCCGUGCAAAAUUGCAGGGGUCUAAAACGACCUGAAUAUUUCAGAUCAAA
RNA 2: GGGAAUGGAUCCACAUCUACGAAUUCGUUUUUGAUCUGAGAUAUUCAGGGCUGCAGAUCGGAAGAGCACACGU
B8: target 3 insA 3' of 21,insU 3' of 4 (mixed)
RNA 1: CACCCGUGCAAAAUUGCAGGGGUCUAAAACGACCUGAAUAUUUCAGAUCAAA
RNA 2: GGGAAUGGAUCCACAUCUACGAAUUCGUUUUAUGAUCUGAAAUAUUCAGUGUCUGCAGAUCGGAAGAGCACACGU
B9: target 3 insU 3' of 22,insC 3' of 9 (mixed)
RNA 1: CACCCGUGCAAAAUUGCAGGGGUCUAAAACGACCUGAAUAUUUCAGAUCAAA
RNA 2: GGGAAUGGAUCCACAUCUACGAAUUCGUUUUUUGAUCUGAAAUACUUCAGGUCUGCAGAUCGGAAGAGCACACGU
B10: target 3 complement block 5-8 (mixed)
RNA 1: CACCCGUGCAAAAUUGCAGGGGUCUAAAACGACCUGAAUAUUUCAGAUCAAA
RNA 2: GGGAAUGGAUCCACAUCUACGAAUUCGUUUUUGAUCUGAAAUAAAGUGGUCUGCAGAUCGGAAGAGCACACGU
B11: target 3 insU 3' of 14,insU 3' of 5 (mixed)
RNA 1: CACCCGUGCAAAAUUGCAGGGGUCUAAAACGACCUGAAUAUUUCAGAUCAAA
RNA 2: GGGAAUGGAUCCACAUCUACGAAUUCGUUUUUGAUCUGUAAAUAUUCAUGGUCUGCAGAUCGGAAGAGCACACGU
B12: target 3 C6A (mixed)
RNA 1: CACCCGUGCAAAAUUGCAGGGGUCUAAAACGACCUGAAUAUUUCAGAUCAAA
RNA 2: GGGAAUGGAUCCACAUCUACGAAUUCGUUUUUGAUCUGAAAUAUUAAGGUCUGCAGAUCGGAAGAGCACACGU
B13: target 3 insA 3' of 22,insC 3' of 5 (mixed)
RNA 1: CACCCGUGCAAAAUUGCAGGGGUCUAAAACGACCUGAAUAUUUCAGAUCAAA
RNA 2: GGGAAUGGAUCCACAUCUACGAAUUCGUUUAUUGAUCUGAAAUAUUCACGGUCUGCAGAUCGGAAGAGCACACGU
B14: target 3 insU 3' of 4,insC 3' of 4 (mixed)
RNA 1: CACCCGUGCAAAAUUGCAGGGGUCUAAAACGACCUGAAUAUUUCAGAUCAAA
RNA 2: GGGAAUGGAUCCACAUCUACGAAUUCGUUUUUGAUCUGAAAUAUUCAGUCGUCUGCAGAUCGGAAGAGCACACGU
B15: target 3 insA 3' of 21 (mixed)
RNA 1: CACCCGUGCAAAAUUGCAGGGGUCUAAAACGACCUGAAUAUUUCAGAUCAAA
RNA 2: GGGAAUGGAUCCACAUCUACGAAUUCGUUUUAUGAUCUGAAAUAUUCAGGUCUGCAGAUCGGAAGAGCACACGU
B16: target 3 insC 3' of 19,insU 3' of 5 (mixed)
RNA 1: CACCCGUGCAAAAUUGCAGGGGUCUAAAACGACCUGAAUAUUUCAGAUCAAA
RNA 2: GGGAAUGGAUCCACAUCUACGAAUUCGUUUUUGCAUCUGAAAUAUUCAUGGUCUGCAGAUCGGAAGAGCACACGU
B17: target 3 insG 3' of 6,insA 3' of 4 (mixed)
RNA 1: CACCCGUGCAAAAUUGCAGGGGUCUAAAACGACCUGAAUAUUUCAGAUCAAA
RNA 2: GGGAAUGGAUCCACAUCUACGAAUUCGUUUUUGAUCUGAAAUAUUCGAGAGUCUGCAGAUCGGAAGAGCACACGU
B18: target 3 insA 3' of 7,insA 3' of 2 (mixed)
RNA 1: CACCCGUGCAAAAUUGCAGGGGUCUAAAACGACCUGAAUAUUUCAGAUCAAA
RNA 2: GGGAAUGGAUCCACAUCUACGAAUUCGUUUUUGAUCUGAAAUAUUACAGGUACUGCAGAUCGGAAGAGCACACGU
B19: target 3 insC 3' of 8,insC 3' of 7 (mixed)
RNA 1: CACCCGUGCAAAAUUGCAGGGGUCUAAAACGACCUGAAUAUUUCAGAUCAAA
RNA 2: GGGAAUGGAUCCACAUCUACGAAUUCGUUUUUGAUCUGAAAUAUCUCCAGGUCUGCAGAUCGGAAGAGCACACGU
B20: target 3 insG 3' of 8,insA 3' of 7 (mixed)
RNA 1: CACCCGUGCAAAAUUGCAGGGGUCUAAAACGACCUGAAUAUUUCAGAUCAAA
RNA 2: GGGAAUGGAUCCACAUCUACGAAUUCGUUUUUGAUCUGAAAUAUGUACAGGUCUGCAGAUCGGAAGAGCACACGU
B21: target 3 insA 3' of 7,insU 3' of 5 (mixed)
RNA 1: CACCCGUGCAAAAUUGCAGGGGUCUAAAACGACCUGAAUAUUUCAGAUCAAA
RNA 2: GGGAAUGGAUCCACAUCUACGAAUUCGUUUUUGAUCUGAAAUAUUACAUGGUCUGCAGAUCGGAAGAGCACACGU
B22: target 3 insC 3' of 5,insA 3' of 4 (mixed)
RNA 1: CACCCGUGCAAAAUUGCAGGGGUCUAAAACGACCUGAAUAUUUCAGAUCAAA
RNA 2: GGGAAUGGAUCCACAUCUACGAAUUCGUUUUUGAUCUGAAAUAUUCACGAGUCUGCAGAUCGGAAGAGCACACGU
B23: target 3 insU 3' of 14,insA 3' of 3 (mixed)
RNA 1: CACCCGUGCAAAAUUGCAGGGGUCUAAAACGACCUGAAUAUUUCAGAUCAAA
RNA 2: GGGAAUGGAUCCACAUCUACGAAUUCGUUUUUGAUCUGUAAAUAUUCAGGAUCUGCAGAUCGGAAGAGCACACGU
B24: target 3 insA 3' of 7,insC 3' of 7 (mixed)
RNA 1: CACCCGUGCAAAAUUGCAGGGGUCUAAAACGACCUGAAUAUUUCAGAUCAAA
RNA 2: GGGAAUGGAUCCACAUCUACGAAUUCGUUUUUGAUCUGAAAUAUUACCAGGUCUGCAGAUCGGAAGAGCACACGU
B25: target 3 U8G (mixed)
RNA 1: CACCCGUGCAAAAUUGCAGGGGUCUAAAACGACCUGAAUAUUUCAGAUCAAA
RNA 2: GGGAAUGGAUCCACAUCUACGAAUUCGUUUUUGAUCUGAAAUAGUCAGGUCUGCAGAUCGGAAGAGCACACGU
B26: target 1 C6G,C22A (mixed)
RNA 1: CACCCGUGCAAAAAUGCAGGGGUCUAAAACUGAGCGGAUAACCUCUCUAUGG
RNA 2: GGGAAUGGAUCCACAUCUACGAAUUCGUAACAUAGAGAGGUUAUCGGCUCACCGAGAUCGGAAGAGCACACGU
B27: target 1 A9G,A18U (mixed)
RNA 1: CACCCGUGCAAAAAUGCAGGGGUCUAAAACUGAGCGGAUAACCUCUCUAUGG
RNA 2: GGGAAUGGAUCCACAUCUACGAAUUCGUACCAUUGAGAGGUUGUCCGCUCACCGAGAUCGGAAGAGCACACGU
B28: target 1 A1U,U8A (mixed)
RNA 1: CACCCGUGCAAAAAUGCAGGGGUCUAAAACUGAGCGGAUAACCUCUCUAUGG
RNA 2: GGGAAUGGAUCCACAUCUACGAAUUCGUACCAUAGAGAGGUUAACCGCUCUCCGAGAUCGGAAGAGCACACGU

molecular target: T1, EsCas13d, nuclease-dead; test: crRNA (strand 1, pre-loaded); Mg2+; 40 mM Tris-HCl pH 7.5, 150 mM NaCl, 6 mM MgCl2, 1 mM DTT, 0.1% Tween-20, 0.2 mg/ml BSA; 25 C; 10 min per concentration, then washed; conditions: tags: His6-TwinStrep-SUMO cleaved; N-terminal SNAP kept (SNAP-Surface 488); label: 3' end held by stalled T7 RNA polymerase

B1 and B2 are within error of each other in Kd: 58 ± 10 nM for the first, 40.5 ± 8.5 nM for the second.

B3 and B4 are within error of each other in Kd: 60 ± 24.5 nM for the first, 97 ± 35 nM for the second.

B5 and B6 are within error of each other in Kd: 95 ± 30 nM for the first, 82.5 ± 12.5 nM for the second.

First: B7
Second: B8
The Kd of the first is 2.8-fold higher: 33.5 ± 6 nM for the first, 11.9 ± 2.1 nM for the second. The second binds more tightly here.

B9 and B10 are within error of each other in Kd: 82.5 ± 21.5 nM for the first, 60.5 ± 6 nM for the second.

Compared with B11, B12 is 2.3-fold lower in Kd: 83.5 ± 33.5 nM for the first, 36.2 ± 4.1 nM for the second.

B13 and B14 are within error of each other in Kd: 24.9 ± 3.35 nM for the first, 19.5 ± 2.5 nM for the second.

Going from B15 to B16, the Kd rises from 33.5 ± 4.5 nM to 130 ± 40 nM (3.9-fold). The first binds more tightly here.

Going from B17 to B18, the Kd rises from 12.3 ± 1.1 nM to 51 ± 8 nM (4.1-fold).

Going from B19 to B20, the Kd falls from 77.5 ± 16 nM to 42 ± 6 nM (1.8-fold). The second binds more tightly here.

Going from B21 to B22, the Kd falls from 15.7 ± 1.3 nM to 9.8 ± 0.9 nM (1.6-fold). The second binds more tightly here.

First: B23
Second: B24
The Kd of the first is 2.1-fold higher: roughly 100 nM for the first, 48 ± 5.5 nM for the second. The second binds more tightly here.

Going from B25 to B26, the Kd falls from 45 ± 6 nM to 14.7 ± 1 nM (3.1-fold).

B27 and B28 are within 1.5-fold of each other in Kd: 39.7 ± 3.1 nM for the first, 26.7 ± 1.3 nM for the second.

Reference: article PMC10786891, “Massively parallel profiling of RNA-targeting CRISPR-Cas13d”
